The results in this text go back to US20230265208A1 (Dana-Farber, published 2023).

Test [1] deals with T1, MUC1 on HCT116/MUC1 cells (human, UniProt P15941 24-1255).
T1 construct: whole, on cells; Human colon cancer cell line engineered to express MUC1
Nature of the test: flow cytometry titration on HCT116/MUC1 cells. Here is the method:
(§1) FACS titration of humanized antibodies. For affinity ranking of humanized antibodies to HCT116/MUC1 cells (a human colon cancer cell line engineered to express MUC1), the purified antibodies were subject to FACs titration. In brief, HCT116/MUC1 cells were cultured and harvested by centrifugation. About 2.5×10⁵ cells per well were washed with PBS twice and incubated in 200 μl of serial dilutions of antibodies for 30 min at 4° C. After washing with PBS., secondary antibody (3 μg Goat anti-Human IgG(H+L) I Fluor 647) was added to the cells and incubated for 30 min at 4° C. After washing with PBS, cells were analyzed for binding (EC₅₀) by using FACS Calibur (BD Bioscience, San Jose, Calif.) and Flowjo software.
(§2) FACS titration of humanized antibodies. Each of the 7 antibodies was titrated for its binding capacity to HCT116/MUC1 cells at various concentrations and the results are mentioned in Table 8 and with a graphical representation in FIG. 5.
(In general: In flow cytometry, cells or beads pass a laser one at a time.)
T1 sequence (P15941 24-1255): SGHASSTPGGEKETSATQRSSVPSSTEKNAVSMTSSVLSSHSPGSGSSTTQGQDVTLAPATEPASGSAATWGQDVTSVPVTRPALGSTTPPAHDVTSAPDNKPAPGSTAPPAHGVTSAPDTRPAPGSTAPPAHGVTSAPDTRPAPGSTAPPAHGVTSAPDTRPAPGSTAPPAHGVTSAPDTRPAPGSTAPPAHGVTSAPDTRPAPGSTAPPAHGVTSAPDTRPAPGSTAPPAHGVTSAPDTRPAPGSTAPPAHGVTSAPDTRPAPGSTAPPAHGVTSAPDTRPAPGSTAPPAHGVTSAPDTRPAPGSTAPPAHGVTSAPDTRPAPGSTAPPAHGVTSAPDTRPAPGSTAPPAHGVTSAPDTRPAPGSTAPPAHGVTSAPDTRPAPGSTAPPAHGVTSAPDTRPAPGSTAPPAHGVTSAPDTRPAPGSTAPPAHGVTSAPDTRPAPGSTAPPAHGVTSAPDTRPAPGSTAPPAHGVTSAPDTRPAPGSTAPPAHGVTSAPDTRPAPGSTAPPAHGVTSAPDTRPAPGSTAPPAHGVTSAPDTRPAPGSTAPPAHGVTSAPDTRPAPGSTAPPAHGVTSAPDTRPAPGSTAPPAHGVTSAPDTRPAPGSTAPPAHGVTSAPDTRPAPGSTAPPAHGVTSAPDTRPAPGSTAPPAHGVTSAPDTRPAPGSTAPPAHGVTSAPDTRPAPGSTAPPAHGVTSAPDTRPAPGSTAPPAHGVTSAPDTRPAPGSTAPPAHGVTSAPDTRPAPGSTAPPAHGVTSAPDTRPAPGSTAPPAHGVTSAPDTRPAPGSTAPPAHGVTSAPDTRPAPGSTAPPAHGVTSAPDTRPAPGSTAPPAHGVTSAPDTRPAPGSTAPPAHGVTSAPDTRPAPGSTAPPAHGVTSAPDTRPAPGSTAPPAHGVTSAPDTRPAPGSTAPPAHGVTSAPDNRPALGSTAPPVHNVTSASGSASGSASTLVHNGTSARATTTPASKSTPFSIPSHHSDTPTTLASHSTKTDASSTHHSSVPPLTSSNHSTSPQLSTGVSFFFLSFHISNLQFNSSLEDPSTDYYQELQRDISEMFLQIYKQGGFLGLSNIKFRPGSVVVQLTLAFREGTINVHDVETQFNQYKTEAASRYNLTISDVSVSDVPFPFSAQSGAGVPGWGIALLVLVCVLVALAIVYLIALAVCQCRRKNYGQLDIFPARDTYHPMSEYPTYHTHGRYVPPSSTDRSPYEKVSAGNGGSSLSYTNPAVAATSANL

Test [2] has as its target T2, MUC1 on HCT116/MUC1 cells (human, UniProt P15941 24-1255). Nature of the test: flow cytometry on HCT116/MUC1 cells; antibody at 11.11111 nM.
T2 sequence (P15941 24-1097, chain 1 of 2): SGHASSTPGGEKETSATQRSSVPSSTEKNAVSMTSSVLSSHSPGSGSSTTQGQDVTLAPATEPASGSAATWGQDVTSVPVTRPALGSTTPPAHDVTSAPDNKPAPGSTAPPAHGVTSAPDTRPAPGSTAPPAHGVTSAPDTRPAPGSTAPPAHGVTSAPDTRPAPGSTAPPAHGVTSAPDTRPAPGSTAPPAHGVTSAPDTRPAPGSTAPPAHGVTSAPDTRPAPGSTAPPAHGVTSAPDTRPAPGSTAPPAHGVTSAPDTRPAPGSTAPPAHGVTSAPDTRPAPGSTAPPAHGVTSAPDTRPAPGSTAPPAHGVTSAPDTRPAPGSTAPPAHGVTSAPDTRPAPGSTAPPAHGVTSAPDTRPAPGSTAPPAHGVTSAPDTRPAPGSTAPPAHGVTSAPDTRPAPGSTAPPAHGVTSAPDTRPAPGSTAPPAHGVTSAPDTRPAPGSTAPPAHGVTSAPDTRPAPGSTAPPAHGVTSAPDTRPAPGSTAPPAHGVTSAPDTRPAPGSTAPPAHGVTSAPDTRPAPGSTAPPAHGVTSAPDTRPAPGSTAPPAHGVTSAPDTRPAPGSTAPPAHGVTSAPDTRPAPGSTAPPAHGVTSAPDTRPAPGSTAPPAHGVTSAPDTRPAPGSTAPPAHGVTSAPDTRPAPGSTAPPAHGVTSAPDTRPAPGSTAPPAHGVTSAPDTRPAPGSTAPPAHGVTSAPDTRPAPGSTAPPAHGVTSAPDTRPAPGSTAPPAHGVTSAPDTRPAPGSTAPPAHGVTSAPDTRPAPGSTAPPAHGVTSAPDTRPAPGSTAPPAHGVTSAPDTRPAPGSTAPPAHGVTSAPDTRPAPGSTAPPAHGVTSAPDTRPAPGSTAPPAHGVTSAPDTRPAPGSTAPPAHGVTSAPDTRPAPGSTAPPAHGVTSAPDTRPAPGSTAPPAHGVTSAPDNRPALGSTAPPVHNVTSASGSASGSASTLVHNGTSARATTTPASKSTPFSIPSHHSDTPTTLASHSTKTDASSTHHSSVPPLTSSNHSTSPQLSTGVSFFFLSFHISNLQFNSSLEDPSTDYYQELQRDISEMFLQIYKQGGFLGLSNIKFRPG
T2 sequence (P15941 1098-1255, chain 2 of 2): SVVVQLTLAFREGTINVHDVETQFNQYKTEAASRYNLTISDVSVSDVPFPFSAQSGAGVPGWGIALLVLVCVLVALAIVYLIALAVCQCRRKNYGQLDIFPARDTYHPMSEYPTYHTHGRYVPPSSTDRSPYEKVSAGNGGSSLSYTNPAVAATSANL
Test [3] addresses T2, MUC1 on HCT116/MUC1 cells. Nature of the test: flow cytometry on HCT116/MUC1 cells; antibody at 0.015242 nM.
Test [4] addresses T2, MUC1 on HCT116/MUC1 cells. Nature of the test: flow cytometry on HCT116/MUC1 cells; antibody at 1.234568 nM.
Test [5] addresses T2, MUC1 on HCT116/MUC1 cells. Nature of the test: flow cytometry on HCT116/MUC1 cells; antibody at 300 nM.
Test [6] concerns the target T2, MUC1 on HCT116/MUC1 cells. Nature of the test: flow cytometry on HCT116/MUC1 cells; antibody at 100 nM.
In test [7] the target is T2, MUC1 on HCT116/MUC1 cells. Nature of the test: flow cytometry on HCT116/MUC1 cells; antibody at 0.045725 nM.
The target of test [8] is T2, MUC1 on HCT116/MUC1 cells. Nature of the test: flow cytometry on HCT116/MUC1 cells; antibody at 3.703704 nM.
Test [9] has as its target T2, MUC1 on HCT116/MUC1 cells. Nature of the test: flow cytometry on HCT116/MUC1 cells; antibody at 0.411523 nM.
For test [10], the target named is T2, MUC1 on HCT116/MUC1 cells. Nature of the test: flow cytometry on HCT116/MUC1 cells; antibody at 33.33333 nM.
The target in test [11] is T2, MUC1 on HCT116/MUC1 cells. Nature of the test: flow cytometry on HCT116/MUC1 cells; antibody at 0.137174 nM.
The target in test [12] is T2, MUC1 on HCT116/MUC1 cells. Nature of the test: flow cytometry titration on HCT116/MUC1 cells. Here is the method:
as §1, §2

B1: VH5 + VL3 (antibody, human IgG1, kappa, V domains shown)
VH: EVQLVQSGAEVKKPGESLKISCKGSGFTFNYFWIEWVRQMPGKGLEWMGEILPGTGSTNYNEKFKGQVTISADKSISTAYLQWSSLKASDTAMYYCARYDYTSSMDYWGQGTLVTVSS
VL: EIVLTQSPATLSLSPGERATLSCRASESVQYSGTSLMHWYQQKPGQAPRLLIYGASNVETGIPARFSGSGSGTDFTLTISSLEPEDFAVYYCQQNWKVPWTFGQGTKVEIKR
notes: Full-length humanized IgG expressed in HEK293 and purified on protein A. Constant regions not specified; also called #23 (inferred from 5x5 numbering)
Regarding B1, in test [1], the EC50 worked out at 12.2 nM.

B2: VH1 + VL3 (antibody, V domains shown)
VH: QVQLVQSGAEVKKPGSSVKVSCKASGYAFSNFWMNWVRQAPGQGLEWMGQIYPGDGDTNYNGKFKGRVTITADKSTSTAYMELSSLRSEDTAVYYCARSYYRSAWFAYWGQGTLVTVSS
VL: EIVLTQSPATLSLSPGERATLSCRASQSIGTSIHWYQQKPGQAPRLLIYYASESISGIPARFSGSGSGTDFTLTISSLEPEDFAVYYCQQSNNWPLTFGGGTKVEIK
Turning to B2, the FACS titration signal came to 20.2 in test [2]; 5.76 in [3]; 7.09 in [4]; 42 in test [5]; 41.7 in test [6]; 8.96 in test [7]. In addition, the FACS titration signal was determined as 10.4 in test [8], 6.22 in [9], 41 in test [10] and 9.47 in test [11]. The same molecule gave an EC50 in test [12] of 13.2 nM.

B3: VH2 + VL3 (antibody, V domains shown)
VH: QVQLVQSGAEVKKPGASVKVSCKASGYAFSNFWMNWVRQAPGQGLEWMGQIYPGDGDTNYNGKFKGRVTMTRDTSTSTVYMELSSLRSEDTAVYYCARSYYRSAWFAYWGQGTLVTVSS
VL: EIVLTQSPATLSLSPGERATLSCRASQSIGTSIHWYQQKPGQAPRLLIYYASESISGIPARFSGSGSGTDFTLTISSLEPEDFAVYYCQQSNNWPLTFGGGTKVEIK
Regarding B3, the FACS titration signal was 21.5 in test [2]; 8.96 in test [3]; 10.6 in test [4]; 44.1 in test [5]; 43.8 in test [6]; 5.46 in test [7]. Moreover, the FACS titration signal in test [8] was found to be 13.9; in test [9], 6.48; in test [10] it was 43; in [11], 9.04. The same molecule had an EC50 in test [12] of 13.3 nM.

B4: VH1 + VL4 (antibody, V domains shown)
VH: QVQLVQSGAEVKKPGSSVKVSCKASGYAFSNFWMNWVRQAPGQGLEWMGQIYPGDGDTNYNGKFKGRVTITADKSTSTAYMELSSLRSEDTAVYYCARSYYRSAWFAYWGQGTLVTVSS
VL: AIQLTQSPSSLSASVGDRVTITCRASQSIGTSIHWYQQKPGKAPKLLIYYASESISGVPSRFSGSGSGTDFTLTISSLQPEDFATYYCQQSNNWPLTFGGGTKVEIK
For B4, the FACS titration signal is 32.3 in test [2]; 5.73 in [3]; 7.61 in test [4]; 53.9 in test [5]; 56.2 in [6]; 5.99 in test [7]. In addition, the FACS titration signal came out at 16.6 in [8], 10.1 in test [9], 57.8 in [10] and 5.5 in [11]. Also, the EC50 in [12] was 9.8 nM.

B5: VH5 + VL2 (antibody, V domains shown)
VH: EVQLVQSGAEVKKPGESLKISCKGSGYAFSNFWMNWVRQMPGKGLEWMGQIYPGDGDTNYNGKFKGQVTISADKSISTAYLQWSSLKASDTAMYYCARSYYRSAWFAYWGQGTLVTVSL
VL: EIVMTQSPATLSVSPGERATLSCRASQSIGTSIHWYQQKPGQAPRLLIYYASESISGIPARFSGSGSGTEFTLTISSLQSEDFAVYYCQQSNNWPLTFGGGTKVEIK
On to B5, for which the FACS titration signal is 33.4 in test [2]; 5.88 in test [3]; 11.8 in [4]; 46.3 in test [5]; 48.9 in [6]; 6.76 in test [7]. Further, the FACS titration signal in test [8] was found to be 17.3; in test [9], 9.71; in test [10], 48.1; in test [11] it was 9.2. In test [12], this molecule yielded an EC50 of 7.69 nM.

B6: Chimeric IgG (antibody, V domains shown)
VH: QVQLQQSGAELMKPGASVKISCKAIGFTFNYFWIEWVKQRPGHGLEWIGEILPGTGSTNYNEKFKGKAIFTADTSSNTAYMQLRSLTSEDSAVYYCVRYDYTSSMDYWGQGTSVTVSS
VL: DIVLTQSPGSLAVSLGQSVTISCRASESVQYSGTSLMHWYQQKPGQPPKLLIYGASNVETGVPARFSGSGSGTDFSLNIHPVEEDDIAMYFCQQNWKVPWTFGGGTKLEIKR
notes: Chimera of the parental mouse antibody with a human Fc (captured by anti-human Fc); also called chimeric antibody; parent chimeric antibody
In turn, B6 had an EC50 in [1] of 6.08 nM.

Broadly, the EC50 is the concentration that produces a half-maximal response.
